Here are results for one molecule from publication PMC4132270, “Compartmentalized self-replication under fast PCR cycling conditions yields Taq DNA polymerase mutants with increased DNA-binding affinity and blood resistance”.

In one data set the target is Taq G59W (Thermus aquaticus, UniProt P19821 1-832, G59W). The data set is described as follows: EMSA; 95 mM KCl (Methods: all assays with Taq mutants); text gives 91 nM; 0.25 nM hairpin, 0.5-1000 nM enzyme, 1x Taq buffer (50 mM KCl for wild type, 95 mM KCl for mutants; full composition and pH not stated for this assay), 37 C, 30. The settings on record: protein: recombinant, label: 5' 33P, recessed 3' end, 5' overhang.

The target in the next data set is Taq E507K (Thermus aquaticus, UniProt P19821 1-832, E507K). Briefly: EMSA; 95 mM KCl; 0.25 nM hairpin, 0.5-1000 nM enzyme, 1x Taq buffer (50 mM KCl for wild type, 95 mM KCl for mutants; full composition and pH not stated for this assay), 37 C, 30. The note with it: protein: recombinant, label: 5' 33P, recessed 3' end, 5' overhang.
Data set [1] has as its target Taq DNA polymerase (wild type) (Thermus aquaticus, UniProt P19821 1-832). The data set is described as follows: EMSA; 50 mM KCl (enzyme's KCl optimum); 0.25 nM hairpin, 0.5-1000 nM enzyme, 1x Taq buffer (50 mM KCl for wild type, 95 mM KCl for mutants; full composition and pH not stated for this assay), 37 C, 30. The note with it: protein: recombinant, tags: none (His tag removed, pET11), label: 5' 33P, recessed 3' end, 5' overhang.

B1: hairpin primer-template (structured_DNA)
DNA: CTCCAGACACGACGCAGTTGCCCGATGGTCGACGTTCGCGAAAGCGAACGTCGACCATCGGGCAACT
modifications: 3' end blocked with dideoxy TMP (3' ddT; unclear whether the printed 3' T is the ddT or it is added)
B1: the results for the Kd (with Taq G59W; with Taq E507K; in data set [1]) were 91.6 nM, 1.1 nM and 102 nM, respectively.
